In article PMC11480844:

B1: H2-Kb / B3 (parent)
chain 1: GQQVKQSSPSLTVQEGGISILNCDYENDMFDYFAWYKKYPDNSPTLLISVRSNVDKREDGRLTVFLNKSGKHFSLHITASQPEDTAVYLCAAGNTGYQNFYFGKGTSLTVIP
chain 2: DSGVVQSPRHIIKEKGGRSVLTCIPISGHSNVVWYQQTLGKELKFLIQHYEKVERDKGFLPSRFSVQQFDDYHSEMNMSALELEDSAMYFCASSSLQGARNQAPLFGEGTRLSVL
chain 3: not shown
chain 4: IQKTPQIQVYSRHPPENGKPNILNCYVTQFHPPHIEIQMLKNGKKIPKVEMSDMSFSKDWSFYILAHTEFTPTETDTYACRVKHDSMAEPKTVYWDRDM
chain 5: SIINFEKL
B2: H2-Kb / B14 (parent)
chain 1: GEQVEQRPPHLSVREGDSAVIICTYTDPNSYYFFWYKQEPGAGLQLLMKVFSSTEINEGQGFTVLLNKKDKQLSLNLTAAHPGDSAVYFCAVSARGNMGYKLTFGTGTSLLVDP
chain 2: GGIITQTPKFLIGQEGQKLTLKCQQNFNHDTMYWYRQDSGKGLRLIYYSITENDLQKGDLSEGYDASREKKSSFSLTVTSAQKNEMAVFLCASSMGQGASDYTFGSGTRLLVI
chain 3: not shown
chain 4: B1 chain 4
chain 5: SIINFEKL

Variants of: B1
Experiment: % of reporter cells activated (NFAT-GFP), raw
Conditions: with B3; scale: % of reporter cells activated
Note: test concentration or dose not given here.

Variant	ratio to parent
chain 5 K7D	0.0872
chain 5 K7F	0.28
chain 5 K7Q	0.201
chain 5 K7V	0.215
chain 5 K7C	0.201
chain 5 K7Y	0.313
chain 5 K7G	0.0497
chain 5 K7H	0.553
chain 5 K7I	0.37
chain 5 K7E	0.175
chain 5 K7P	0.263
chain 5 K7T	0.253
chain 5 K7S	0.219
chain 5 K7L	0.488
chain 5 K7A	0.18
chain 5 K7R	0.199
chain 5 K7N	0.601
chain 5 K7W	0.634
chain 5 K7M	0.315
chain 5 F5C	0.411
chain 5 F5W	0.399
chain 5 F5R	0.0406
chain 5 F5I	0.467

Variant	ratio to parent
chain 5 F5H	0.428
chain 5 F5D	0.272
chain 5 F5T	0.842
chain 5 F5K	0.121
chain 5 F5N	0.305
chain 5 F5G	0.197
chain 5 F5S	0.263
chain 5 F5Q	0.343
chain 5 F5L	0.842
chain 5 F5Y	0.918
chain 5 F5E	0.207
chain 5 F5P	0.228
chain 5 F5A	0.437
chain 5 F5V	0.38
chain 5 F5M	0.771
chain 5 I2L	1.35
chain 5 I2K	0.551
chain 5 I2W	0.631
chain 5 I2D	1.57
chain 5 I2C	1.29
chain 5 I2T	2.16
chain 5 I2E	0.706
chain 5 I2A	1.67

Variant	ratio to parent
chain 5 I2Y	0.308
chain 5 I2Q	0.228
chain 5 I2N	0.605
chain 5 I2P	0.386
chain 5 I2M	0.465
chain 5 I2V	1.39
chain 5 I2S	1.73
chain 5 I2G	1.01
chain 5 I2F	0.945
chain 5 I2R	0.777
chain 5 I2H	0.323
chain 5 S1A	0.221
chain 5 S1C	0.181
chain 5 E6Q	0.961
chain 5 E6A	2.48
chain 5 E6T	1.87
chain 5 E6D	1.39
chain 5 E6N	0.831
chain 5 E6S	1.25
chain 5 E6C	2.48
chain 5 E6I	0.819
chain 5 E6G	1.37
chain 5 E6W	2.6

Variant	ratio to parent
chain 5 E6F	2.13
chain 5 E6R	0.469
chain 5 E6L	0.766
chain 5 E6H	0.651
chain 5 E6P	1.43
chain 5 E6V	2.28
chain 5 E6K	0.587
chain 5 E6M	0.793
chain 5 E6Y	1.97
chain 5 I3L	1.21
chain 5 I3Q	0.614
chain 5 I3G	0.273
chain 5 I3P	1.7
chain 5 I3Y	0.153
chain 5 I3D	0.144
chain 5 I3H	0.787
chain 5 I3V	0.59
chain 5 I3C	0.787
chain 5 I3T	0.509
chain 5 I3F	0.216
chain 5 I3R	0.0152
chain 5 I3S	1.32
chain 5 I3W	0.28

Variant	ratio to parent
chain 5 I3A	0.585
chain 5 I3M	1.73
chain 5 I3K	0.322
chain 5 I3N	0.35
chain 5 I3E	0.956
chain 5 L8P	0.463
chain 5 L8Y	0.619
chain 5 L8I	0.902
chain 5 L8V	0.793
chain 5 L8K	0.331
chain 5 L8D	0.434
chain 5 L8G	0.264
chain 5 L8N	0.885
chain 5 L8A	0.21
chain 5 L8S	0.287
chain 5 L8E	0.448
chain 5 L8F	0.341
chain 5 L8Q	0.258
chain 5 L8R	0.837
chain 5 L8T	0.7
chain 5 L8M	0.809
chain 5 L8H	0.547
chain 5 L8W	0.462

Variant	ratio to parent
chain 5 L8C	0.526
chain 5 N4G	0.158
chain 5 N4T	0.137
chain 5 N4W	0.176
chain 5 N4H	0.293
chain 5 N4V	0.132
chain 5 N4K	0.189
chain 5 N4A	0.143
chain 5 N4C	0.164
chain 5 N4F	0.255
chain 5 N4R	0.181
chain 5 N4S	0.222
chain 5 N4E	0.188
chain 5 N4D	0.118
chain 5 N4Y	0.0862
chain 5 N4P	0.196
chain 5 N4Q	0.0254
chain 5 N4L	0.204
chain 5 N4M	0.133
chain 5 N4I	0.183

Variants of: B2
Experiment: % of reporter cells activated (NFAT-GFP), raw
Conditions: with B14; scale: % of reporter cells activated

Variant	ratio to parent
chain 5 S1C	1.42
chain 5 S1Y	1.33
chain 5 S1K	0.564
chain 5 S1V	8.49
chain 5 S1F	3.07
chain 5 S1R	2.04
chain 5 S1Q	0.858
chain 5 S1D	1.38
chain 5 S1N	0.231
chain 5 S1W	1.04
chain 5 S1I	0.76
chain 5 S1H	1.24
chain 5 S1G	0.596
chain 5 S1M	0.444
chain 5 S1A	0.942
chain 5 S1P	0.751

Variant	ratio to parent
chain 5 S1E	0.867
chain 5 S1L	1.13
chain 5 S1T	1.42
chain 5 N4H	0.911
chain 5 N4T	1.64
chain 5 N4I	0.484
chain 5 N4Y	0.658
chain 5 N4L	0.822
chain 5 N4P	1.38
chain 5 N4W	1.01
chain 5 N4K	1.37
chain 5 N4Q	1.07
chain 5 N4M	0.498
chain 5 N4V	1.42
chain 5 N4R	1.32
chain 5 N4S	1.1
